3 molecules from patent US20100196953 can be followed below.

Data set [1] concerns pre-pro-insulin glargine.
The target of data set [2] is pre-pro-insulin glulisine.
Data set [3] deals with pre-pro-insulin glargine. The source holds these as a separate data set.
In data set [4] the target is pre-pro-insulin (human insulin).

Regarding Serine190Alanine human trypsin variant, the “by-product formation in pre-pro-insulin processing (HPLC)” value in data set [1] was “High amounts of by-products, mainly B30-des-Thr- and A0-components, are formed during reaction”.

B1: Ser172Ala porcine trypsin (protein)
chain: IVGGYTCAANSIPYQVSLNSGSHFCGGSLINSQWVVSAAHCYKSRIQVRLGEHNIDVLEGNEQFINAAKIITHPNFNGNTLDNDIMLIKLSSPATLNSRVATVSLPRSCAAAGTECLISGWGNTKSSGSSYPSLLQCLKAPVLSDSSCKSSYPGQITGNMICVGFLEGGKDACQGDSGGPVVCNGQLQGIVSWGYGCAQKNKPGVYTKVCNYVNWIQQTIAAN
For the molecule B1, in data set [2], the A0-Arg-insulin glulisine [area %] worked out at 1.2 area %, the Arg-insulin-glulisine [area %] is 39.2 area % and the Yield (external standard) [%] amounted to 100%. In data set [3], this molecule registered an Insulin glargine [area %] of 55.5 area %, a Yield (external standard) [%] of 62.9%, a des-Thr [area %] of 2.6 area % and a pre-Insulin glargine [area %] of 0.4 area %. Besides, in data set [3], the Σ A0 compounds [area %] turned out to be 5.1 area %. Besides, in data set [4], the Yield (external standard) [%] came out at 96.5%, the des-Thr [area %] was 3.3 area %, the Σ A0 compounds [area %] is 4.1 area % and the Σ Arg-Ins [area %] came to 82.5 area %. Also, in data set [4], the Σ pre-Arg-Ins [area %] worked out at 0.9 area %.

B2: native, recombinant porcine trypsin (wildtype porcine pancreatic trypsin isoform I) (protein)
chain: IVGGYTCAANSIPYQVSLNSGSHFCGGSLINSQWVVSAAHCYKSRIQVRLGEHNIDVLEGNEQFINAAKIITHPNFNGNTLDNDIMLIKLSSPATLNSRVATVSLPRSCAAAGTECLISGWGNTKSSGSSYPSLLQCLKAPVLSDSSCKSSYPGQITGNMICVGFLEGGKDSCQGDSGGPVVCNGQLQGIVSWGYGCAQKNKPGVYTKVCNYVNWIQQTIAAN
In data set [2], B2 displayed an A0-Arg-insulin glulisine [area %] of 4.7 area %, an Arg-insulin-glulisine [area %] of 35.8 area % and a Yield (external standard) [%] of 91.6%. In data set [3], the Insulin glargine [area %] worked out at 51.1 area %, the Yield (external standard) [%] turned out to be 58.1%, the des-Thr [area %] amounted to 5.6 area % and the pre-Insulin glargine [area %] came to 0.5 area %. Besides, in data set [3], the Σ A0 compounds [area %] stood at 10.9 area %. In data set [4], this molecule showed a Yield (external standard) [%] of 84.2%, a des-Thr [area %] of 7.2 area %, a Σ A0 compounds [area %] of 10.7 area % and a Σ Arg-Ins [area %] of 68.8 area %. The Σ pre-Arg-Ins [area %] in data set [4] was 1.4 area %.
